According to patent publication US20250177503A1, “COMPOSITIONS AND METHODS FOR TREATING AUTOIMMUNE DISORDERS” (THE REGENTS OF THE UNIVERSITY OF MICHIGAN, priority 2022, published 2025):

System: CD4+CD25+Foxp3+T regulatory cells (Tregs)
Experiment: Example III: dosing regimen optimisation, ND-OVA + IL-2/IC vs ND-OVA + wtIL-2, flow cytometry of peripheral blood CD4+ T cells
Assay type: in vivo, C57BL/6 mice
Settings: summary of findings
Method: Animals were cared for following federal, state, and local guidelines. All work performed on animals was in accordance with and approved by Institutional Animal Care & Use Committee (IACUC) at the University of Michigan, Ann Arbor. Seven-week-old female C57BL/6 mice were randomly divided into 6 groups with 5 mice in each group. For Group 1 (ND-OVA_D−3,+7+IL2/IC_D3,4,5): 0.1 mL of ND-OVA (containing 0.1 mg OVA-II peptide) was injected into each mouse subcutaneously at the tail base at Day −3 and Day 7; 0.1 mL IL2/IC (containing 1 μg murine IL-2 and […] IL-2 mAb) was injected into each mouse intraperitoneally (i.p.) at Days 0, 1, 2, and Days 10, 11, 12. For Group 2 (ND-OVA_D−4,+6+IL2/IC_D4,5,6): 0.1 mL of ND-OVA (containing 0.1 mg OVA-II peptide) was injected into each mouse subcutaneously at the tail base at Day −4 and Day 6; 0.1 mL IL2/IC (containing […] murine IL-2 and 5 μg IL-2 mAb) was injected into each mouse intraperitoneally (i.p.) at Days 0, 1, 2, and Days 10, 11, 12. For Group 3 (ND-OVA_D−3,+7+IL2/IC_D3,4,5,6,7): 0.1 mL of ND-OVA (containing 0.1 mg OVA-II peptide) was injected into each mouse subcutaneously at the tail base at Day −3 and Day 7; 0.1 mL IL2 (containing 1 μg murine IL-2) was injected into each mouse intraperitoneally (i.p.) at Days 0, 1, 2, 3, 4 and Days 10, 11, 12, 13, 14. […]

B1: IL-2: recombinant murine IL-2 (wild type IL-2 protein) (protein, UniProt P04351 21-169, looked up)
Interleukin-2: APTSSSTSSSTAEAQQQQQQQQQQQQHLEQLLMDLQELLSRMENYRNLKLPRMLTFKFYLPKQATELKDLQCLEDELGPLRHVLDLTQSKSFQLEDAENFISNIRVTVVKLKGSDNTFECQFDDESATVVDFLRRWIAFCQSIISTSPQ
  expansion of total Tregs and antigen-specific Tregs: fails to expand
